The conditions of this data set: Bos taurus; pH 5.3; 5 °C; GdnHCl; Fluorescence; Sodium acetate 0.02 M; whole UniProt chain shown.

B1: Acyl-CoA-binding protein wild type, P07107 (protein)
chain: MSQAEFDKAAEEVKHLKTKPADEEMLFIYSHYKQATVGDINTERPGMLDFKGKAKWDAWNELKGTSKEDAMKAYIDKVEELKKKYGI
As for B1, the denaturant m value was 3.53 kcal/mol/M and the unfolding free energy is 8.08 kcal/mol.
